In patent US20240002497A1 (Merck Sharp & Dohme, published 2024):
Numbering of substitutions follows the chain as printed. In names and notes the source's numbering stands. Values belong to the binder of their own block, whether it stands above or below them.

Key:
huNav1.7α + β1-β2-β3 = target: T1, huNav1.7α + β1-β2-β3 (human, UniProt Q15858 1-1988; A5A6L6 19-218; O60939 30-215; Q2KI11 23-215); test: binding FACS, CHO FlpIn
T1 construct: also called huNav1.7-beta1-beta2-beta3; huNav1.7-β1-β2-β3
Experimental: (§1) Binding of the ISVDs to cell-expressed Nav1.7α was detected via murine anti-Flag (Sigma, catalog #F1804). Briefly, cells were resuspended in FACS buffer (PBS, 10% FBS, NaN₃) and transferred to a 96-well V-bottom plate at 1×10^5 cells/well. Purified FLAG3-tagged ISVD was diluted in FACS buffer and added to the cells for 30 minutes at 4° C. […] Prior to the read-out, the samples were resuspended in 1 μg/mL propidium iodide (Sigma, catalog #P4170) to exclude dead cells. Between each step, the cells were centrifuged for 5 minutes at 200 grams and washed with 100 μL/well FACS buffer.

rhNav1.7α + β1-β2-β3 = target: T2, rhNav1.7α + β1-β2-β3 (rhesus monkey); test: binding FACS, CHO FlpIn
T2 construct: also called rhNav1.7-beta1-beta2-beta3; rhNav1.7-β1-β2-β3
Experimental: as §1

[1] = target: T3, huNav1.7α + β1-β2-β3 (human Nav1.7α co-expressed with human Navβ1, Navβ2 and Navβ3 on cells) (human); test: binding FACS, CHO FlpIn cells
T3 construct: also called huNav1.7-beta1-beta2-beta3; CHO FlpIn huNav1.7α + β1-β2-β3
Experimental: as §1

[2] = target: T4, rhNav1.7α + β1-β2-β3 (rhesus Nav1.7α co-expressed with Navβ1, Navβ2 and Navβ3 on cells) (rhesus monkey (α subunit); β subunits …); test: binding FACS, CHO FlpIn cells
T4 construct: also called rhNav1.7-beta1-beta2-beta3; CHO FlpIn rhNav1.7α + β1-β2-β3
Experimental: as §1

B1: F010302346 (VHH)
VHH: EVQLVESGGGVVQPGGSLRLSCAASHRAFIRDVFTGWYRQAPGKQRELVARIYESGNTQYADSAKGRFTISRDNAKKTVYLQMNSLRPEDTALYYCLFSGTISTGREYRSGDYWGQGTLVTVSS
Bmax (huNav1.7α + β1-β2-β3): 100%
EC50 (huNav1.7α + β1-β2-β3): 5 nM
Bmax (rhNav1.7α + β1-β2-β3): 99%
EC50 (rhNav1.7α + β1-β2-β3): 12 nM

B5: F010302361 (VHH)
VHH: B1 VHH with A28Q, S55G, A64V
Bmax (huNav1.7α + β1-β2-β3): 100%
EC50 (huNav1.7α + β1-β2-β3): 4.8 nM
Bmax (rhNav1.7α + β1-β2-β3): 92%
EC50 (rhNav1.7α + β1-β2-β3): 11 nM

B6: F010302348 (VHH)
VHH: B1 VHH with V33L, Q59N
Bmax (huNav1.7α + β1-β2-β3): 100%
EC50 (huNav1.7α + β1-β2-β3): 6.7 nM
Bmax (rhNav1.7α + β1-β2-β3): 95%
EC50 (rhNav1.7α + β1-β2-β3): 14 nM

B8: F010302351 (VHH)
VHH: B1 VHH with H26S, A28Q, Q40R, A64V
Bmax (huNav1.7α + β1-β2-β3): 100%
EC50 (huNav1.7α + β1-β2-β3): 5.6 nM
Bmax (rhNav1.7α + β1-β2-β3): 72%
EC50 (rhNav1.7α + β1-β2-β3): 15 nM

B9: F010302362 (VHH)
VHH: B1 VHH with A64V
Bmax (huNav1.7α + β1-β2-β3): 100%
EC50 (huNav1.7α + β1-β2-β3): 5.4 nM
Bmax (rhNav1.7α + β1-β2-β3): 89%
EC50 (rhNav1.7α + β1-β2-β3): 14 nM

B10: F010302364 (VHH)
VHH: B1 VHH with V33L, Q59N, A64V
Bmax (huNav1.7α + β1-β2-β3): 100%
EC50 (huNav1.7α + β1-β2-β3): 7.2 nM
Bmax (rhNav1.7α + β1-β2-β3): 74%
EC50 (rhNav1.7α + β1-β2-β3): 17 nM

B11: F010302356 (VHH)
VHH: B1 VHH with V33L, Q40R, Q59N, A64V
Bmax (huNav1.7α + β1-β2-β3): 100%
EC50 (huNav1.7α + β1-β2-β3): 5.3 nM
Bmax (rhNav1.7α + β1-β2-β3): 81%
EC50 (rhNav1.7α + β1-β2-β3): 12 nM

B13: F010302359 (VHH)
VHH: B1 VHH with H26S, A28Q, A64V
Bmax (huNav1.7α + β1-β2-β3): 100%
EC50 (huNav1.7α + β1-β2-β3): 6.4 nM
Bmax (rhNav1.7α + β1-β2-β3): 66%
EC50 (rhNav1.7α + β1-β2-β3): 24 nM

B15: F010302312 (VHH)
VHH: EVQLVESGGGVVQPGGSLRLSCAASGPVFNINRMAWYRQAPGKQRELVAYVTPTGDISYADSVKGRFTISRDGSKRVYLQMNSLRPEDTALYYCRALLQPDSYSITRTYWGQGTLVTVSS
notes: also called F0103387G04(L11V, A12V, K33R, R39Q, S50Y, S56D, T60A, W78V, S79Y, T83R, V89L, N93R, N100cI)
Bmax [1]: 100%
EC50 [1]: 24 nM
Bmax [2]: 100%
EC50 [2]: 18 nM

B16: F010301846 (VHH)
VHH: B15 VHH with A60T, V77W, I105N
notes: also called F0103387G04(L11V, A12V, K33R, R39Q, S50Y, S56D, S79Y, T83R, V89L, N93R)
Bmax [1]: 100%
EC50 [1]: 21 nM
Bmax [2]: 100%
EC50 [2]: 11 nM

B17: F010301848 (VHH)
VHH: B15 VHH with G73N, I105N
notes: also called F0103387G04(L11V, A12V, K33R, R39Q, S50Y, S56D, T60A, G73N, W78V, S79Y, T83R, V89L, N93R)
Bmax [1]: 100%
EC50 [1]: 44 nM
Bmax [2]: 100%
EC50 [2]: 19 nM

B18: F010301842 (VHH)
VHH: B15 VHH with V77W, Y78S, I105N
notes: also called F0103387G04(L11V, A12V, K33R, R39Q, S50Y, S56D, T60A, T83R, V89L, N93R)
Bmax [1]: 100%
EC50 [1]: 15 nM
Bmax [2]: 100%
EC50 [2]: 7.9 nM

Further lines, results first:

Bmax (huNav1.7α + β1-β2-β3): 100%
EC50 (huNav1.7α + β1-β2-β3): 4.2 nM
Bmax (rhNav1.7α + β1-β2-β3): 93%
EC50 (rhNav1.7α + β1-β2-β3): 7.9 nM
B2: F010302353 (VHH)
VHH: B1 VHH with A28Q, Q40R, S55G, A64V

Bmax (huNav1.7α + β1-β2-β3): 100%
EC50 (huNav1.7α + β1-β2-β3): 3.5 nM
Bmax (rhNav1.7α + β1-β2-β3): 46%
EC50 (rhNav1.7α + β1-β2-β3): 15 nM
B3: F010302350 (VHH)
VHH: B1 VHH with H26S, A28Q, Q40R, E54N, S55E, A64V

Bmax (huNav1.7α + β1-β2-β3): 100%
EC50 (huNav1.7α + β1-β2-β3): 4.2 nM
Bmax (rhNav1.7α + β1-β2-β3): 96%
EC50 (rhNav1.7α + β1-β2-β3): 7.9 nM
B4: F010302354 (VHH)
VHH: B1 VHH with Q40R, A64V

Bmax (huNav1.7α + β1-β2-β3): 100%
EC50 (huNav1.7α + β1-β2-β3): 3.5 nM
Bmax (rhNav1.7α + β1-β2-β3): 58%
EC50 (rhNav1.7α + β1-β2-β3): 15 nM
B7: F010302360 (VHH)
VHH: B1 VHH with A28Q, E54N, S55E, A64V

Bmax (huNav1.7α + β1-β2-β3): 100%
EC50 (huNav1.7α + β1-β2-β3): 4.5 nM
Bmax (rhNav1.7α + β1-β2-β3): 37%
EC50 (rhNav1.7α + β1-β2-β3): 37 nM
B12: F010302358 (VHH)
VHH: B1 VHH with H26S, A28Q, E54N, S55E, A64V

Bmax (huNav1.7α + β1-β2-β3): 100%
EC50 (huNav1.7α + β1-β2-β3): 3.6 nM
Bmax (rhNav1.7α + β1-β2-β3): 60%
EC50 (rhNav1.7α + β1-β2-β3): 11 nM
B14: F010302352 (VHH)
VHH: B1 VHH with A28Q, Q40R, E54N, S55E, A64V
